T1: CD20 on CD20+ Raji cells (UniProt P11836 1-297, limits assumed)
T1 construct: whole, on cells; Endogenous CD20 of the Raji cell line; also called TAA (CD20)
T1 sequence (looked up): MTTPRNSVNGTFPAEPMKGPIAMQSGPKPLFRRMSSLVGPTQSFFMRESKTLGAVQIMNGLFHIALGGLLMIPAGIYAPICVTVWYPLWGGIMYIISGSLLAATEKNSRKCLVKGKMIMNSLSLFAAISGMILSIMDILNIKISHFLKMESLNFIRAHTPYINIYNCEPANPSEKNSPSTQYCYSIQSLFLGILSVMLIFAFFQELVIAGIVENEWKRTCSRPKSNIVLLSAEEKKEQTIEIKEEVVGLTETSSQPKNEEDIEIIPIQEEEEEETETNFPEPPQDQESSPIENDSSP

B1: TK20-17C7-01 anti-TMIGD2/anti-CD20 bispecific antibody (bispecific antibody, human IgG1, kappa, L234A L235A)
heavy: not shown
light: QIVLSQSPAILSASPGEKVTMTCRASSSVSYIHWFQQKPGSSPKPWIYATSNLASGVPVRFSGSGSGTSYSLTISRVEAEDAATYYCQQWTSNPPTFGGGTKLEIKRTVAAPSVFIFPPSDEQLKSGTASVVCLLNNFYPREAKVQWKVDNALQSGNSQESVTEQDSKDSTYSLSSTLTLSKADYEKHKVYACEVTHQGLSSPVTKSFNRGEC
notes: Tetravalent Morrison format; copies: 2 + 2
B2: TK20-29F8-16 anti-TMIGD2/anti-CD20 bispecific antibody (bispecific antibody, human IgG1, kappa, L234A L235A)
heavy: not shown
light: B1 light
notes: as for B1
B3: TK20-39C9-2134 anti-TMIGD2/anti-CD20 bispecific antibody (bispecific antibody, human IgG1, kappa, L234A L235A)
heavy: not shown
light: B1 light
notes: as for B1

These binders were tested against T1, CD20 on CD20+ Raji cells (assay: Raji co-culture with TMIGD2-Jurkat NFAT reporter cells; binding told in words, not measured directly).
Protocol: Raji cells (2×10⁴) were plated in a 96-well white flat bottom tissue culture plate with anti-TMIGD2/anti-CD20 bispecific antibodies (TK20-17C7-01, TK20-29F8-16, and TK20-39C9-2134) in 50 μl R10 medium (RPMI 1640+10% Fetal bovine serum) at 3-fold serial dilutions ranging from 10-0.5 μg/mL. An anti-CD20 (IgG1 LALA) was included as a negative control. The cells were incubated at 37° C. for 30 minutes. TMIGD2-Jurkat NFAT reporter cells (4×10⁴) were added to each well with 1 μg/mL anti-CD3 antibody (OKT3) in 50 μl R10 medium. Cells were incubated at 37° C. for 6 hours and 100 ul of Bio-Glo™ luciferase assay reagent (Promega®, G7940) was added to each well. Luciferase activity was measured on a plate reader.

Binding result, binds:
B1
B2
B3

Source: patent US20250138018A1 (NEXTPOINT THERAPEUTICS, published 2025)
